According to patent US20230357323A1, “HUMAN IL23 RECEPTOR BINDING POLYPEPTIDES” (University of Washington, priority 2020, published 2023):
Read-outs that look alike come from different tables or passages of the source.

Assays:
human IL-23R (hIL-23R) = target: T1, human IL-23R (hIL-23R) (Homo sapiens, UniProt Q5VWK5); assay: Biolayer interferometry (BLI) binding to hIL-23R; conditions: biolayer interferometry binding titrations; read-out: affinity (KD) for hIL-23R
T1 construct: his tag (C); purchased
T1 sequence (Q5VWK5 24-629): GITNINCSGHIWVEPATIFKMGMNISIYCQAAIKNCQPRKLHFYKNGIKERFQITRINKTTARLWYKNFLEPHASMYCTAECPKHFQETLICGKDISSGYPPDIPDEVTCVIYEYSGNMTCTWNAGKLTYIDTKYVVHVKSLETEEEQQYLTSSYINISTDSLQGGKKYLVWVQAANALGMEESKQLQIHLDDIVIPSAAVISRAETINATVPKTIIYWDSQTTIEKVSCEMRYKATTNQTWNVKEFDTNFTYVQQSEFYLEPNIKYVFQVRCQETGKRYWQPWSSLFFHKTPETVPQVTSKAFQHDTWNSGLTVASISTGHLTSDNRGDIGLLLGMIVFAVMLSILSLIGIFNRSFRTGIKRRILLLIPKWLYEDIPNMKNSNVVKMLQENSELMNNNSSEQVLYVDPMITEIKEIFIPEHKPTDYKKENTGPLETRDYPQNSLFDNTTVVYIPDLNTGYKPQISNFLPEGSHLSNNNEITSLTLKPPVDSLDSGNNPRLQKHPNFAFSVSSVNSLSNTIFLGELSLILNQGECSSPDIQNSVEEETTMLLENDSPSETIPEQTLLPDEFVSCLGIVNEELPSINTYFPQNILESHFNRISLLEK
Source text: Two designs, 23R_A (SEQ ID NO:10) and 23R_B (SEQ ID NO:110), were highly enriched in the final selection pool and were chosen for further biochemical characterization. Both designs are 3-helix bundles (54 and 53 residues, respectively) which incorporate the native Trp hotspot at the N-terminal end of a helix such that IL-23R residue D118 forms a helix-capping hydrogen bond with the Trp hotspot's free backbone amine, similar to the αD helix of p19 (FIG. 1D). In both designs, this central binding helix has a larger interaction surface with hIL-23R, mediated by additional de novo hotspots, than p19. […]
Variants were first screened for relative binding to hIL-23R with biolayer interferometry (BLI). hIL-23R was immobilized on the BLI sensor tips and binding to each variant in solution at a constant concentration (50 nM) was measured to qualitatively determine relative performance of the variants. For the best-performing variants, binding constants (KD, including kon, and koff) were quantitatively determined with BLI titration experiments in triplicate. […]
Qualitative and quantitative assessment of binding affinity was performed using biolayer interferometry (ForteBio Octet™ […] and associated software for analysis). […] Kinetic constants were determined from the mathematical fit of a 1:1 binding model.

[1] = Proteolytic stability in simulated intestinal fluid (SIF), SDS PAGE; format: in vitro ADME; conditions: for SIF t1/2: pH 6.5
Source text: (§1) While resistance to high heat is important for manufacturing and storage, and resistance to chemical denaturant is a good proxy for stability overall, any oral, gut-restricted IL-23R inhibitor will preferably survive the harsh conditions of the gastrointestinal tract, including high acidity and physiological proteases, to reach the site of action intact. To determine feasibility of oral administration, we therefore more directly assessed the stability of our designed IL-23R inhibitors in simulated gastric fluid (SGF), including the protease pepsin at pH 2, and simulated intestinal fluid (SIF), including proteases trypsin and chymotrypsin at pH 6.5. Proteolysis was assessed qualitatively by SDS PAGE at timepoints up to 24 hours.
Several reported formulations of simulated intestinal fluid show variable proteolytic activity, and protease activity of human intestinal fluid has not been thoroughly studied. Therefore, as a benchmark for SIF stability, we directly compared our designs to V565-38F, an oral, gut-restricted nanobody inhibitor of TNFa currently in a phase 2 clinical trial for Crohn's disease, in SIF with enzyme concentrations sufficient to degrade this molecule over 24 hours. Design variants with proteolytic stability greater than or equal to V565-38F are likely to be sufficiently stable to enable oral therapy.
(§2) Simulated intestinal fluid (SIF) was prepared as recommended by Jantratid et al. (termed FaSSIFv2) with the addition of proteases trypsin and chymotrypsin each at 30 μg/mL.^18 This composition is denoted as “1x SIF” in the text. In some instances, designed proteins (pure recombinant protein, or yeast libraries as above) or the comparator V565-38F were so stable that minimal degradation could be detected at the maximum duration (24 hours for SDS PAGE experiments, 90 minutes for cytometry experiments). Therefore, we increased the concentrations of both trypsin and chymotrypsin to increase the rate of digestion; these solutions are denoted as “#x SIF”, where for example “2x SIP” denotes a 2-fold increase in concentration of both trypsin and chymotrypsin (to 60 μg/mL), Simulated gastric fluid was prepared as follows: 600 ug/mL pepsin and 34.2 mM NaCl in water, with […] added to adjust pH to 2.
For qualitative assessment of proteolytic stability, pure recombinant proteins were digested at 37° C. for 24 hours and proteolytic cleavage assessed by SDS PAGE. From concentrated stock solutions, recombinant proteins were added to stock SGF and SIF solutions to a final concentration of 0.1 mg/mL. Timepoints were taken at 0, 5, 15, 30, 60 minutes, 4 and 24 hours; at each timepoint, samples were removed and immediately mixed with load dye and boiled for 5 minutes at 95° C. to quench protease activity. 5 ug protein (based on initial digest concentration of 0.1 mg/mL) per timepoint were run on 16% Tris-tricine polyacrylamide gels.

[2] = Proteolytic stability in simulated gastric fluid (SGF), SDS PAGE; format: in vitro ADME
Source text: as §1, §2
For qualitative assessment of proteolytic stability, pure recombinant proteins were digested at 37° C. for 24 hours and proteolytic cleavage assessed by SDS PAGE. From concentrated stock solutions, recombinant proteins were added to stock SGF and SIF solutions to a final concentration of 0.1 mg/mL. […]

IL-23R [3] = target: T2, IL-23R (Homo sapiens, UniProt Q5VWK5); assay: Surface plasmon resonance (SPR) binding affinity to hIL-23R; parameters: his tag (C); purchased
T2 sequence (Q5VWK5 24-629): T1 sequence (Q5VWK5 24-629)

IL-23R [4] = target: T2, IL-23R; assay: IL-23-mediated cell signaling assay (Promega IL-23 Bioassay luciferase reporter cells); format: cell-based; conditions: IL-23 reporter assay; C-terminal versus N-terminal 6-histidine tag
Method: FIG. 7. Designed IL-23R inhibitor block IL-23-mediated cell signaling in vitro. Cells engineered to express luciferase downstream of IL-23R (Promega) were pre-incubated for 30 minutes with a titration of each inhibitor, then stimulated with 8 ng/mL human IL-23 cytokine for 6 hours. Luciferase substrate was added, luminescence read, and % inhibition of signaling calculated relative to wells with no inhibitor added. IC50 was calculated using linear regression to fit dose response; values are shown above alongside fold increase in potency relative to a competitor molecule PTG compound C.
Next, we assessed the ability of IL-23R inhibitors to block IL-23-mediated cell signaling. […] IC50 values were determined using linear regression to fit dose response.
Commercial IL-23 reporter cells (Promega IL-23 Bioassay) expressing luciferase downstream of IL-23R were used to assess inhibition of IL-23-mediated cell signaling. Cells were plated in the inner wells of 96-well tissue culture treated white plates suitable for reading luminescence. Cells were pre-incubated for 30 minutes with a dilution series of each inhibitor, then treated with the EC80 stimulatory concentration of recombinant human IL-23 cytokine determined in preceding experiments (8 ng/mL; R&D 1290-IL). After 6 hours incubation with human IL-23, luciferase substrate was added and luminescence read. […]

[5] = trypsin and chymotrypsin, 37° C., SDS PAGE

Substance “IL-23 cytokine: native ligand; heterodimeric cytokine composed of the p19 subunit and the p40 subunit” has a Kd (human IL-23R (hIL-23R)) of 1.7 nM.

With “MEPEKYLRELCKKYYEGKLSQQEAVEEIRKYARKKGLEAWKLVWYFMQCVKRDI [rA11dslf02]” the “SIF t1/2” value ([1]; simulated gi fluid) was 60 min.

With “NLWQIFYLLNTCIKRTGDPTCKKLKKALRECEKKGDEKACKELAKKAMKYIRS (NLWQIFYLLNTCIKRTGDPTCKKLKKALRECLKKGDEKACKELAKKAMKYIRS) [B04dslf02]” the “SIF t1/2” value [1, 5] was 5 to 15 min.

In the case of “PEPEKYLQELCKKYYEGKLSQQEAVEEIRKYARKWGLEAWKLVWYFMQCVKRDI [rA11dslf02_M1P_R8Q_K35W]”, the “stability in SIF compared to V565-38F” value ([1]; SIF with enzyme concentrations sufficient to degrade V565-38F over 24 hours (3x SIF)) is reported as “similarly stable”, the “SIF t1/2” value [1, 5] is reported as 240 to 1440 min and the “stability in SGF compared to V565-38F” value ([2]; SGF) is reported as “much more stable”. It also gave a Kd (IL-23R [3]) of 0.075 nM.

In the case of “PLWQVFYLLNTCIKRTGDPTCKKLAKALRECLKKGDLKACNELADKAVKYINS [B04dslf02IB]”, the “effect of C-terminal 6-histidine tag on potency” value (IL-23R [4]) is reported as “no effect on potency”, the “effect of C-terminal 6-histidine tag on proteolytic stability” value ([1]; SGF or SIF up to 24 hours, C-terminal versus N-terminal 6-histidine tag) is reported as “greatly enhances the proteolytic stability” and the “SIF t1/2” value [1, 5] is reported as 30 to 60 min. The Kd (IL-23R [3]) was under 0.001 nM.

With “mB09dslf01-T48I: best mIL-23R inhibitor after optimization for stability and mIL-23R affinity; T48I variant of mB09dslf01; no SEQ ID given (NLWQIFYCLLTCIKRTGDPTCKKLLKALQEAVKKNDEKAVKELAKKAIKYCRSHHHHHH)” the “3x SIF t1/2” value ([1]; simulated gi fluid) was “greater than 24 hours”, the “stability in SGF compared to V565-38F” value [2] was “more stable” and the “SGF t1/2” value ([2]; simulated gi fluid, pH 2) was “greater than 24 hours”.
